B1: ACSBG2 (parent)
chain: TPMTIPEFFRESVNRFGTYPALAS

Variants of: B1
Experiment: protein stability index of a GFP-peptide fusion (GPS, HEK-293T) (PSI 1-6); higher = more stable
Settings: c terminus: a fixed tail appended
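Note: lentivirally expressed fusions sorted by FACS into six bins by GFP to DsRed ratio, PSI derived from sequencing read proportions per bin multiplied by bin number.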

Variant	protein stability index
M3D	2.52
M3S	2.8
M3W	1.69
M3A	2.34
M3E	2.44
M3H	2.37
M3F	2.14
M3G	2.54
M3K	2.46
E7F	2.93
E7S	2
E7Y	1.52
E7Q	2.02
E7W	1.74
E7R	2.19
N14P	2.66
N14V	1.93
N14G	2.18
N14E	2.81
N14R	2.01
N14C	1.83
P6T	1.88
P6N	2.05

Variant	protein stability index
P6F	4.36
S12D	2.96
S12L	2.01
S12M	2.64
S12G	2.48
S12A	1.97
S12H	2.27
P2K	2.01
P2F	1.83
P2H	2.29
E11W	2.08
E11F	2.47
E11N	1.82
E11C	1.95
E11I	1.69
E11S	2.15
E11A	1.95
E11T	2.17
Y19W	2.38
Y19Q	2.91
Y19N	2.84
Y19C	2.19
Y19G	2.73

Variant	protein stability index
S24A	2.06
S24I	1.48
S24D	2.87
S24V	1.37
S24K	2.45
S24R	2.96
S24W	1.66
G17T	1.91
G17C	1.43
G17L	1.95
G17H	2.28
F8N	3.19
F8E	2.35
F8Y	2.4
F8R	2.39
F8S	2.9
T18A	1.89
T18P	2.08
T18Y	2.09
T18S	2.06
T18N	2.35
T18E	3.05
T18H	2.1

Variant	protein stability index
T1Y	2.27
T1C	1.73
T1H	2.07
T1D	2.94
T1P	2.43
T1Q	2.44
T4H	2.38
T4G	2.34
T4I	1.88
T4K	2.31
T4E	2.52
T4L	1.86
T4S	1.99
T4F	1.65
T4D	2.23
R15W	1.52
R15P	2.04
R15K	2.1
R15Q	2.69
R15F	2.25
R15M	1.8
F16N	3.41
F16Y	2.22

Variant	protein stability index
F16Q	2.8
F16G	2.48
F16H	3.03
F16T	2.87
F16A	3.51
F16S	2.71
F9Y	2.71
F9W	1.92
F9R	2.88
F9T	3.4
F9D	3.36
F9Q	2.37
F9P	2.79
L22D	3.19
L22P	2.63
L22Q	2.5
V13E	2.78
V13L	2.09
V13K	2.31
V13N	2.84
A21P	2.32
A21E	2.69
A21V	1.78

Variant	protein stability index
A21C	1.88
A21H	2.32
A21Y	2.17
A23R	2.56
A23L	2.19
A23K	2.71
A23N	2.5
A23F	1.67
A23H	2.43
A23V	1.66
R10A	2.61
R10I	1.51
R10P	3.03
P20C	1.97
P20A	1.89
P20K	2.39
I5A	2.44
I5W	2.18
I5L	1.97
